Assay results as given in PMC9250616 (Angiogenesis, 2022).

Experiments:
Collagen VI = test: ELISA
Collagen I = test: ELISA

Chain of Collagen VI (P12109 20-1028, chain 1 of 3): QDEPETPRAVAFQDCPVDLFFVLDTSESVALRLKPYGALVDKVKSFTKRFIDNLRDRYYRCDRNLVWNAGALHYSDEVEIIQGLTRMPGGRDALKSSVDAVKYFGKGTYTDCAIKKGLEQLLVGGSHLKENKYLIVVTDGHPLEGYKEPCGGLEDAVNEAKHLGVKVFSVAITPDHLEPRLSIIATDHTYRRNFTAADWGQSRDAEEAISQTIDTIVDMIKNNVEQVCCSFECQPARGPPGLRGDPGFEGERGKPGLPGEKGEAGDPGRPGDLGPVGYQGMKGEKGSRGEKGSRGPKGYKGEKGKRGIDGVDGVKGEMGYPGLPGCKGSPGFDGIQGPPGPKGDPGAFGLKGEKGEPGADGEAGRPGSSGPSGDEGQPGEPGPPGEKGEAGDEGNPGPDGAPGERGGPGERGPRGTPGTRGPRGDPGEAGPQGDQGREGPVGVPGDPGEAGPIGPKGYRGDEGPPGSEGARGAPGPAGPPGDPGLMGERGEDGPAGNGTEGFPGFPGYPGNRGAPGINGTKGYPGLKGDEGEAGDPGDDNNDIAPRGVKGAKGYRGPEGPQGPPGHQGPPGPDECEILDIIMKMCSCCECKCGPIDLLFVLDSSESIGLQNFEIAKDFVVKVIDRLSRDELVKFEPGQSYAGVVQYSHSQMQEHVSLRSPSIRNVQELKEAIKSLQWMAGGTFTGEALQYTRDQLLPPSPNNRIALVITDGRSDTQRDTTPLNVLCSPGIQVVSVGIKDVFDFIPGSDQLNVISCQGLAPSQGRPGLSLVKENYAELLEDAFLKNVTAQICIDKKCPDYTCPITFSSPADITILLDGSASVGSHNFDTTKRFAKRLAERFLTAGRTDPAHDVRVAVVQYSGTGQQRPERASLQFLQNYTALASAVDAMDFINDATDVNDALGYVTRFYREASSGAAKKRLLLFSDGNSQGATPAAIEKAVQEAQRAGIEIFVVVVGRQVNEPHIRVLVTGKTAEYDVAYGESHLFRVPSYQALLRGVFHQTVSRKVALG
Chain of Collagen VI (P12110 21-1019, chain 2 of 3, further chain): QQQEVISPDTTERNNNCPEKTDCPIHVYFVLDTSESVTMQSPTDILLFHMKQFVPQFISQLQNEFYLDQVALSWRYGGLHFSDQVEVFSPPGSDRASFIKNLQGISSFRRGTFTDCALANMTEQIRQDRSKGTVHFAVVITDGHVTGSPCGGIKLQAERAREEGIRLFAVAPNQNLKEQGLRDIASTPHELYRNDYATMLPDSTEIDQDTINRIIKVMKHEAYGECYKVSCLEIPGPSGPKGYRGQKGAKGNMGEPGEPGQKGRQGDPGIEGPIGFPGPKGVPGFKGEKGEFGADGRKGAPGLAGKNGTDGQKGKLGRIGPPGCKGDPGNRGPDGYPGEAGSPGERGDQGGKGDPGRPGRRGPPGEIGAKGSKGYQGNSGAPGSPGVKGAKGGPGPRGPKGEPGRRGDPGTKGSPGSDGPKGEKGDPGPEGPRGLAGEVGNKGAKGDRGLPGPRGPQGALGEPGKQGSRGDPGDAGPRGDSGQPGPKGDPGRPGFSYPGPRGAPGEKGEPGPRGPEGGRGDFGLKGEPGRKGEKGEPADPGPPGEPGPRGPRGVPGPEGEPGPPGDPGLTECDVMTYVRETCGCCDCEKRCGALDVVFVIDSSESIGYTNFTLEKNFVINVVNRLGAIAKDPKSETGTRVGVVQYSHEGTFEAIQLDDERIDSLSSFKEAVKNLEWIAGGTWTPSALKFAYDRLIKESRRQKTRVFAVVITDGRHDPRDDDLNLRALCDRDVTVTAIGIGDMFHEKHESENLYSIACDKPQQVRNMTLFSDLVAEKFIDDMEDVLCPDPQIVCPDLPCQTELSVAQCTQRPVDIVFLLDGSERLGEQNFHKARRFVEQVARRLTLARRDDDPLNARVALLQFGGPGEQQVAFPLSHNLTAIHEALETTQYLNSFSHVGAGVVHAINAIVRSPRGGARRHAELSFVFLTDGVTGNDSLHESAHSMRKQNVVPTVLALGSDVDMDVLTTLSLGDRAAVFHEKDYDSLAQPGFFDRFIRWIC
Chain of Collagen VI (P12111 26-3177, chain 3 of 3, further chain): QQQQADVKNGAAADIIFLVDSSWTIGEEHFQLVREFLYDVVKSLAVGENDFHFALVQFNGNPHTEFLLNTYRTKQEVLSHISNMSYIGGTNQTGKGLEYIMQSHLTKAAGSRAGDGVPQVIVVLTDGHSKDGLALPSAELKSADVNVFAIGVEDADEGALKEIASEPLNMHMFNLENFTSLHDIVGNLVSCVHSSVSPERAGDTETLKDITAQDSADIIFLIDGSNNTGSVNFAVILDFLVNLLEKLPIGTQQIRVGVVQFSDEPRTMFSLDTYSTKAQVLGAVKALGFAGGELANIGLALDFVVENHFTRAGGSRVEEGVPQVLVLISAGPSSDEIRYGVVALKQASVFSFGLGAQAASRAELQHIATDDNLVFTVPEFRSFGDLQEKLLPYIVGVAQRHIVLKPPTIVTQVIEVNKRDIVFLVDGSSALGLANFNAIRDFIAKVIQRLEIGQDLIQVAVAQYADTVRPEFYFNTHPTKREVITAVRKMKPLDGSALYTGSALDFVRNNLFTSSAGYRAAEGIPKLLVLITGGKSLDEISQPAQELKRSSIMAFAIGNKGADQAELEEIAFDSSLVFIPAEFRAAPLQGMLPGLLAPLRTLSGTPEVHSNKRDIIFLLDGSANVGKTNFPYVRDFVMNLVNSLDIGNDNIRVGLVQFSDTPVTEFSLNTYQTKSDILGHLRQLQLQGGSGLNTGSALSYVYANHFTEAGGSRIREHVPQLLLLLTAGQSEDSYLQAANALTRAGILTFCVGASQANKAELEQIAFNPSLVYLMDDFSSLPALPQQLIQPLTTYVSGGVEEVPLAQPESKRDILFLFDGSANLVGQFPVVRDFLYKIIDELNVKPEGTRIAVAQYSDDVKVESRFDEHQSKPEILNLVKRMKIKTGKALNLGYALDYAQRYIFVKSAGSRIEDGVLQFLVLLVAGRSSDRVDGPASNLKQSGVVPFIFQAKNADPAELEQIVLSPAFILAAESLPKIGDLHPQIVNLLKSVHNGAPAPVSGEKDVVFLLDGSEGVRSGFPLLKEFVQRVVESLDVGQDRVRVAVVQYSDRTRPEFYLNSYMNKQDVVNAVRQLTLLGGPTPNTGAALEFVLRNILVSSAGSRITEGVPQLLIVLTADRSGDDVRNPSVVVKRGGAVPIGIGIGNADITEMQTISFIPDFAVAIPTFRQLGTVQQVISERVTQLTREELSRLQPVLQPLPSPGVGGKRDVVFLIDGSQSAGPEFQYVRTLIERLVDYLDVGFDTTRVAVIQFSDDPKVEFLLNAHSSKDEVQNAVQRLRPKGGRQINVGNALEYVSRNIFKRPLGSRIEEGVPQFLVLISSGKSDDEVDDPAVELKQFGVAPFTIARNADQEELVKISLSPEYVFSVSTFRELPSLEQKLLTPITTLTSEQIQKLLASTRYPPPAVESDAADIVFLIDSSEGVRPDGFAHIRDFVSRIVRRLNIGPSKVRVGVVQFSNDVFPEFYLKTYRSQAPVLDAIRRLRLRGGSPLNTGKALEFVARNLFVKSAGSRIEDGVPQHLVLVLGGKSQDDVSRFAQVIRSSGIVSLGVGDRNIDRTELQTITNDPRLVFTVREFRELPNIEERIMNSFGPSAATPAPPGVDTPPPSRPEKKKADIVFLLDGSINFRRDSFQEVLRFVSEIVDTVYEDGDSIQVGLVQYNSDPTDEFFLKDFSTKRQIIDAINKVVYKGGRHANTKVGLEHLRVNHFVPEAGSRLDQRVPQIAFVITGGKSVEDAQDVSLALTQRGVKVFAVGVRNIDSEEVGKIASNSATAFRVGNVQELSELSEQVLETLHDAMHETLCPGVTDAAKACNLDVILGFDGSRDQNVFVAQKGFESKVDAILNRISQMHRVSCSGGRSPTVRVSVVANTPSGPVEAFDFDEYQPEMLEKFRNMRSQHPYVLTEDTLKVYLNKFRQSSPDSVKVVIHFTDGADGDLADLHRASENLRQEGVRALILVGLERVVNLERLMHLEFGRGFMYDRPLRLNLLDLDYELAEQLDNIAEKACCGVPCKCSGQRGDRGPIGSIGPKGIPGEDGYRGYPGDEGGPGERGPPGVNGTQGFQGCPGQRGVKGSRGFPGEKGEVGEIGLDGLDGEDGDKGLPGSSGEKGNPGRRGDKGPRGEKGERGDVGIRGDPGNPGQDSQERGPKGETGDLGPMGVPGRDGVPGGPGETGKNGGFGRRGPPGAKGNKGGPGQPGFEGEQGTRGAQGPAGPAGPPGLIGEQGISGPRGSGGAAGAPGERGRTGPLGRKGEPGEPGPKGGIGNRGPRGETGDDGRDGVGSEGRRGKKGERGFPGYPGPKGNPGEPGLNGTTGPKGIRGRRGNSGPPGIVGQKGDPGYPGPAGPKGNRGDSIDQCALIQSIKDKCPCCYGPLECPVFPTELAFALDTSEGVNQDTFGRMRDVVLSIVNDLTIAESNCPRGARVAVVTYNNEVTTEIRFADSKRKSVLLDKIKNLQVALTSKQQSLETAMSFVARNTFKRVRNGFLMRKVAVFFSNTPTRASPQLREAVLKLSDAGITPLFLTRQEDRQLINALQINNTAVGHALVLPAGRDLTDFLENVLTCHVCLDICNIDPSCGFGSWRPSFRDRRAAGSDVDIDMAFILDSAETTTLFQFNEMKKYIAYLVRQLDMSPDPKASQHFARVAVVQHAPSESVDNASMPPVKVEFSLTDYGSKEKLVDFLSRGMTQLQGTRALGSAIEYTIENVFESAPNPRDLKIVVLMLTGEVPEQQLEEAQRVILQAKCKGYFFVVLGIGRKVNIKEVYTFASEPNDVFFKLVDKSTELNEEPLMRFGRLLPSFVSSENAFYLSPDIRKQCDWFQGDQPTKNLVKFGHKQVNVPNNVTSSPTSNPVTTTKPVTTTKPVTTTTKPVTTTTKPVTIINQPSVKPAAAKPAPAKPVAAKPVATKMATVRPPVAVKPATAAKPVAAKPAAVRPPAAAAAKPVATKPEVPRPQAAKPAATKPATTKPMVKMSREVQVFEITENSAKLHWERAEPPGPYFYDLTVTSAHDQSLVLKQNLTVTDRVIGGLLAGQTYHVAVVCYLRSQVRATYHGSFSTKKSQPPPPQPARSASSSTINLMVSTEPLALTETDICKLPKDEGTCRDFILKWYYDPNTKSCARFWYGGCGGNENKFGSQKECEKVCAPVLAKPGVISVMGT

B1: biotinylated CMG2-AviTag construct (capillary morphogenesis gene 2, anthrax toxin receptor 2) (receptor)
chain: not shown
modifications: biotin (biotinylated CMG2-AviTag construct)
Kd (Collagen VI): 800 nM | Kd (Collagen I): 500 nM
